According to publication doi:10.1101/330266 (bioRxiv, 2019):

B1: 306VQIVYK311 hexapeptide (peptide)
peptide: Ac-VQIVYK-NH2
B2: R2R3-P301S peptide fragment (peptide)
peptide: Ac-DNIKHVSGGGSVQIVYK-NH2
B3: R2R3-P301L peptide fragment (peptide)
peptide: Ac-DNIKHVLGGGSVQIVYK-NH2
B4: R2R3-V300I peptide fragment (peptide)
peptide: Ac-DNIKHIPGGGSVQIVYK-NH2
B5: R2R3-S305N peptide fragment (peptide)
peptide: Ac-DNIKHVPGGGNVQIVYK-NH2
B6: R2R3-G303V peptide fragment (peptide)
peptide: Ac-DNIKHVPGVGSVQIVYK-NH2

Molecular target: the molecule itself
Test: thioflavin T

Row | Protein | binding result
1 | B1 | binds
2 | B2 | binds
3 | B3 | binds
4 | B4 | binds
5 | B5 | binds
6 | B6 | binds
